Test results published in paper PMC12674617 (2025).

B1: full-length BICD2 tagged on the C-terminus with mini-TurboID (BICD2-mTrbo) [human] / KIF5B [human (endogenous in HEK293)] (parent complex)
chain 1: MSAPSEEEEYARLVMEAQPEWLRAEVKRLSHELAETTREKIQAAEYGLAVLEEKHQLKLQFEELEVDYEAIRSEMEQLKEAFGQAHTNHKKVAADGESREESLIQESASKEQYYVRKVLELQTELKQLRNVLTNTQSENERLASVAQELKEINQNVEIQRGRLRDDIKEYKFREARLLQDYSELEEENISLQKQVSVLRQNQVEFEGLKHEIKRLEEETEYLNSQLEDAIRLKEISERQLEEALETLKTEREQKNSLRKELSHYMSINDSFYTSHLHVSLDGLKFSDDAAEPNNDAEALVNGFEHGGLAKLPLDNKTSTPKKEGLAPPSPSLVSDLLSELNISEIQKLKQQLMQMEREKAGLLATLQDTQKQLEHTRGSLSEQQEKVTRLTENLSALRRLQASKERQTALDNEKDRDSHEDGDYYEVDINGPEILACKYHVAVAEAGELREQLKALRSTHEAREAQHAEEKGRYEAEGQALTEKVSLLEKASRQDRELLARLEKELKKVSDVAGETQGSLSVAQDELVTFSEELANLYHHVCMCNNETPNRVMLDYYREGQGGAGRTSPGGRTSPEARGRRSPILLPKGLLAPEAGRADGGTGDSSPSPGSSLPSPLSDPRREPMNIYNLIAIIRDQIKHLQAAVDRTTELSRQRIASQELGPAVDKDKEALMEEILKLKSLLSTKREQITTLRTVLKANKQTAEVALANLKSKYENEKAMVTETMMKLRNELKALKEDAATFSSLRAMFATRCDEYITQLDEMQRQLAAAEDEKKTLNSLLRMAIQQKLALTQRLELLELDHEQTRRGRAKAAPKTKPATPSL
chain 2: MADLAECNIKVMCRFRPLNESEVNRGDKYIAKFQGEDTVVIASKPYAFDRVFQSSTSQEQVYNDCAKKIVKDVLEGYNGTIFAYGQTSSGKTHTMEGKLHDPEGMGIIPRIVQDIFNYIYSMDENLEFHIKVSYFEIYLDKIRDLLDVSKTNLSVHEDKNRVPYVKGCTERFVCSPDEVMDTIDEGKSNRHVAVTNMNEHSSRSHSIFLINVKQENTQTEQKLSGKLYLVDLAGSEKVSKTGAEGAVLDEAKNINKSLSALGNVISALAEGSTYVPYRDSKMTRILQDSLGGNCRTTIVICCSPSSYNESETKSTLLFGQRAKTIKNTVCVNVELTAEQWKKKYEKEKEKNKILRNTIQWLENELNRWRNGETVPIDEQFDKEKANLEAFTVDKDITLTNDKPATAIGVIGNFTDAERRKCEEEIAKLYKQLDDKDEEINQQSQLVEKLKTQMLDQEELLASTRRDQDNMQAELNRLQAENDASKEEVKEVLQALEELAVNYDQKSQEVEDKTKEYELLSDELNQKSATLASIDAELQKLKEMTNHQKKRAAEMMASLLKDLAEIGIAVGNNDVKQPEGTGMIDEEFTVARLYISKMKSEVKTMVKRCKQLESTQTESNKKMEENEKELAACQLRISQHEAKIKSLTEYLQNVEQKKRQLEESVDALSEELVQLRAQEKVHEMEKEHLNKVQTANEVKQAVEQQIQSHRETHQKQISSLRDEVEAKAKLITDLQDQNQKMMLEQERLRVEHEKLKATDQEKSRKLHELTVMQDRREQARQDLKGLEETVAKELQTLHNLRKLFVQDLATRVKKSAEIDSDDTGGSAAQKQKISFLENNLEQLTKVHKQLVRDNADLRCELPKLEKRLRATAERVKALESALKEAKENASRDRKRYQQEVDRIKEAVRSKNMARRGHSAQIAKPIRPGQHPAASPTHPSAIRGGGAFVQNSQPVAVRGGGGKQV

Variants of: B1
Experiment: proximity biotinylation, streptavidin bead purification, western blot quantification; parent: 1; read off a plot

chain 1 R747C was tested. Which ratio to parent did it give?
The ratio to parent was ~0.5.

With chain 1 N188T as the variant, how does the ratio to parent read?
Its ratio to parent is ~0.86.

Which ratio to parent does the source give for chain 1 R694C here?
The ratio to parent was ~0.78.
